Source: patent publication US20030028924

Key:
[1] = target: T1, Purified oat phytochrome A, Pfr spectral form, autophosphorylated, P06593
T1 chain: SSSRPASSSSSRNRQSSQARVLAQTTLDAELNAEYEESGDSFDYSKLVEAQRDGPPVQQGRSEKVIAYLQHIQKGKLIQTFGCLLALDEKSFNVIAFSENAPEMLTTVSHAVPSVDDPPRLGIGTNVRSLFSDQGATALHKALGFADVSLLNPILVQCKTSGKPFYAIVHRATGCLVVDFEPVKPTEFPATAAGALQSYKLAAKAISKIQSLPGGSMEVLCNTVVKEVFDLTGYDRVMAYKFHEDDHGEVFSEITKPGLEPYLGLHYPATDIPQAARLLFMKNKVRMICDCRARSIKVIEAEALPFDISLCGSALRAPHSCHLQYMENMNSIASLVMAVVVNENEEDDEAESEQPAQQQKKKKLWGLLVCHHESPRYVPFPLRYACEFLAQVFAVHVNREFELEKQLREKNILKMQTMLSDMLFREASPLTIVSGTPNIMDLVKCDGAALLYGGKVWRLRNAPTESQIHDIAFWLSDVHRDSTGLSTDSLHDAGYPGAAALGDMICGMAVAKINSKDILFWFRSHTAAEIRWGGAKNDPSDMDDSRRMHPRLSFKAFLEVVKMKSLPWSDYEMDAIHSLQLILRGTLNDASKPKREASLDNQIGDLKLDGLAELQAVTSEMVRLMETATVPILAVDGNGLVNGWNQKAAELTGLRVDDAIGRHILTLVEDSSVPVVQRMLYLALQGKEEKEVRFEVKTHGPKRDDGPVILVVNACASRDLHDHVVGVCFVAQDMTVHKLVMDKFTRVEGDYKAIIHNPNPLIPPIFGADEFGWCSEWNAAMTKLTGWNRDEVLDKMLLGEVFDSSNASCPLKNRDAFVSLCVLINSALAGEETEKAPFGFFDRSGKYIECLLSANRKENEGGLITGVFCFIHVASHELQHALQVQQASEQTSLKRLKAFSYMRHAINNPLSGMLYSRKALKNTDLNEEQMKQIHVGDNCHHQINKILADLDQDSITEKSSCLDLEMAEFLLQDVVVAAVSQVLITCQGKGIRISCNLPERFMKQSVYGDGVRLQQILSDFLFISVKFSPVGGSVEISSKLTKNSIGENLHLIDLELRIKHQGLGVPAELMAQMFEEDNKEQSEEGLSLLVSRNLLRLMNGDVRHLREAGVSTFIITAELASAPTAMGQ

[2] = target: T2, Purified oat phytochrome A, Pr spectral form, autophosphorylated, P06593
T2 chain: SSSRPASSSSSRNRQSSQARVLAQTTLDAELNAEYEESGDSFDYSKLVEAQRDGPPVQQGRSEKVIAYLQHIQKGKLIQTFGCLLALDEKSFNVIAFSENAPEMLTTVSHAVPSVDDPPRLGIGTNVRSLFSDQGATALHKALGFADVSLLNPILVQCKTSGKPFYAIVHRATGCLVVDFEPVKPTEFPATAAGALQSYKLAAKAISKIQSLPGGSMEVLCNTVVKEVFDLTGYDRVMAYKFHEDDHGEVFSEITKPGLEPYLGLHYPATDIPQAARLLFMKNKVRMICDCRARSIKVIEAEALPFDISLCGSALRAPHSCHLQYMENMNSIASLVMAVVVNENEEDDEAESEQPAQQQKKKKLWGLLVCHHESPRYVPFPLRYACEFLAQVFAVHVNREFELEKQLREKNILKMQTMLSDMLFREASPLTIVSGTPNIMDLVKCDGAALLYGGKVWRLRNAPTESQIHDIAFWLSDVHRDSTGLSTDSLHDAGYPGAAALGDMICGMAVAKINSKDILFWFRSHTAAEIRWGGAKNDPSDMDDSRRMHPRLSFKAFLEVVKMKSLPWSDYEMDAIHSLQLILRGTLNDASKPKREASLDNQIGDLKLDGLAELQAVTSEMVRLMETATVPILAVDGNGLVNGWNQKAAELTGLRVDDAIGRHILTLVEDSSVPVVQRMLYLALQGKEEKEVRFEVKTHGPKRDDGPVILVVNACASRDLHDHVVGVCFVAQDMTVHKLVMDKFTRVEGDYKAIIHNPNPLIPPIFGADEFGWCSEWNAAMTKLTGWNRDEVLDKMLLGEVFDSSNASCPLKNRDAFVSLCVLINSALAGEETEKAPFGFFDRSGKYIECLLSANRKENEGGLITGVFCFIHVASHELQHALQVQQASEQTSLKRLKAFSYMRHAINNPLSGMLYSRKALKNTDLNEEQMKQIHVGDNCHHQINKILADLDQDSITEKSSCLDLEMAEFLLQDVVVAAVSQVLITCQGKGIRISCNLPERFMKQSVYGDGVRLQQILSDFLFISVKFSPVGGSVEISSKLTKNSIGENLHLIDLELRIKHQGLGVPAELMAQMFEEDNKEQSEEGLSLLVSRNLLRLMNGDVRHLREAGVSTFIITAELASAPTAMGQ

[3] = target: T3, Purified oat phytochrome A, autophosphorylated in the presence of gamma-[32P]ATP, P06593
T3 chain: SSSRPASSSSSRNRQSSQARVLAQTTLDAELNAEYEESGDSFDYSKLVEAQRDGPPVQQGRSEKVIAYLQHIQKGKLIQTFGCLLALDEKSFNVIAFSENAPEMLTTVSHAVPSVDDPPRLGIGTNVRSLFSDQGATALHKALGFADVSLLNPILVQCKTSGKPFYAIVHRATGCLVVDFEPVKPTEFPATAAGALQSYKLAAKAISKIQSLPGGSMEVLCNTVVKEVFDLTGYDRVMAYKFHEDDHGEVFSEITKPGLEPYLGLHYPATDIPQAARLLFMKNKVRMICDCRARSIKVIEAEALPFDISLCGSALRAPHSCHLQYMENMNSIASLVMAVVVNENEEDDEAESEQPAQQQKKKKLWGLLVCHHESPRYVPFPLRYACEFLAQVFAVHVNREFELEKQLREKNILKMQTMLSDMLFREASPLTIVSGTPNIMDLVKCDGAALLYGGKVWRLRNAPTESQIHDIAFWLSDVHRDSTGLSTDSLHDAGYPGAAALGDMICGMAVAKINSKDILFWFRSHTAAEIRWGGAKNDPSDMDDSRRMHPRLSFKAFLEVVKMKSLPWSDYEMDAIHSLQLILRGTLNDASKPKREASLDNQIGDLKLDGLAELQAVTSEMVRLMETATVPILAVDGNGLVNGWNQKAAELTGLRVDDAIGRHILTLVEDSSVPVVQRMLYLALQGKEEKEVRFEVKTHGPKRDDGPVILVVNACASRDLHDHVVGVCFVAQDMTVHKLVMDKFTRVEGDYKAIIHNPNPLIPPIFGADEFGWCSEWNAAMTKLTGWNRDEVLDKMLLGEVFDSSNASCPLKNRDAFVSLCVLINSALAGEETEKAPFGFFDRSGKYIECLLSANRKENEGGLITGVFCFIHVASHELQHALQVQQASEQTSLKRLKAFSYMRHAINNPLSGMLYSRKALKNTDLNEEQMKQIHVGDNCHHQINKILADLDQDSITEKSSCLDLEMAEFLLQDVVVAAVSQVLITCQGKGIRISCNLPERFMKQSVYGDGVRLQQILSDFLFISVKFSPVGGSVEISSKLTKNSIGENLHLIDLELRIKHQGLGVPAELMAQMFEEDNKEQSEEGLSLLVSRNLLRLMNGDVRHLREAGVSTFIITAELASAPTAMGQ

B1: Recombinant PP2AC-JD protein expressed in E. coli BL21 from pGEX-4T-1 as a GST fusion, GST tag removed by thrombin (protein)
chain: DLDQWISKVKDGQHLLEDELQLLCEYVKEILIEESNVQPVNSPVTVCGDIHGQFHDLMKLFQTGGHVPETNYIFMGDFVDRGYNSLDVFTILLLLKARYPANITLLRGNHESRQLTQVYGFYDECQRKYGNANATRYCTDVFDYLTLSAIIDGTVLCVHGGLSPDIRTIDQIRVIERNCEIPHEGPFCDLMWSDPEDIETWAVSPRGAGWLFGSRVTSEFNHINNLDLVCRAHQLVQEGLKYMFQDKGLVTVWSAPNYCYRCGNVASILSFNENMEREVKFFTETEENNQMRGPRTGVPYFL
dephosphorylation of 32P-autophosphorylated phytochrome A (SDS-PAGE, autoradiography) [1]: more efficiently dephosphorylated by the PP2AC-JD than the Pr spectral form | dephosphorylation of 32P-autophosphorylated phytochrome A (SDS-PAGE, autoradiography) [2]: The Pfr phytochrome A was more efficiently dephosphorylated by the PP2AC-JD than the Pr spectral form | dephosphorylation of 32P-autophosphorylated phytochrome A (SDS-PAGE, autoradiography) [3]: efficiently dephosphorylated by the PP2AC-JD only in the presence of Fe^2+ or Zn^2+
